Assay: yeast display, Sf9 membrane polyspecificity reagent, FACS + sequencing; frameworks hold sequencing errors
Outline: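 A nanobody's polyreactivity label depends on the gate it was sorted from. Yeast display cells were stained with 10% biotinylated, detergent-solubilized Sf9 membrane reagent for 1 hour at 4 °C, enriched on streptavidin microbeads and sorted by FACS. The low and high (top ~1%) gates were set on anti-HA fluorescence for expression and streptavidin fluorescence for reagent binding.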

Sequence	polyreactivity (PSR sort gate)
QVQLVESGGGLVQAGGSLRLSCAASGRTFVWNAMGWYRQAPGKERELVAAISSSGTSTYYADSVKGRFTISRDNAKNTVYLQMNSLKPEDTAVYYCAKDLLYQPTIRDYWGQGTQVTVSS	low polyreactivity
QVQLVESGGGLVQAGGSLRLSCAASGRTFVYNAMGWYRQAPGIERELVAAITTSGASTYYADSVKGRFTISRDNAKNTVYLQMNSLKPEDTAVYDCNAYSRYSYGRTYGYWGQGTQVTVSS	high polyreactivity
QVQLVESGGGLVQAGGSLRLSCAASGRTFVYNAMGWYRQAPGKERELVATITFSGGSTYYADSVKGRFTISRDNAKNTVYLQMNSLKPEDTAVYYCNTQGVHHYYHAPQVRGYDYWGQGTQVTVSS	low polyreactivity
QVQLVESGGGLVQAGGSLRLSCAASGRTFVYNVMGWYRQAPGKERELVAAISSGGSTNYADSVKGRFTISRDNGKNTVYVQMNSLKPEDTAVYYCNAGTLYYRYRWGHYYDSWGQGTQVTVSS	low polyreactivity
QVQLVESGGGLVQAGGSLRLSCAASGRTFVYTMGWYRQAPGKERELVAAIRYSGGRTYYADSVKGRFTISRDNAKNTVYLQMNSLKPEDTAVYYCAARNYATGVRYDYWGQGTQVTVSS	high polyreactivity
QVQLVESGGGLVQAGGSLRLSCAASGRTFVYYAMGWYRQAPGKEREFVATISDGGGTYYADSVKGRFTISRDNAKNTVYLQMNSMNPEDSAVYYCNARGTPWRYGGDYWGQGTQVTVSS	low polyreactivity
QVQLVESGGGLVQAGGSLRLSCAASGRTFVYYAMGWYRQAPGKEREFVATITSSGGSTYYADSVKGRFTISRDNAKNTVYLQMNSLKPEDTAVYYCSASPYIRYSKVSKYYYWGQGTQVTVSS	high polyreactivity
QVQLVESGGGLVQAGGSLRLSCAASGRTFWANAMGWYRQAPGKERELVAAINYSGGRTYYADSVKGRFTISRDNAKNTVYLQMNSLKPEDTAVYYCNVVHGGAISDYWGQGTQVTVSS	high polyreactivity
QVQLVESGGGLVQAGGSLRLSCAASGRTFWAYAMGWYRQAPGKERELVAAITASGTRTYYADSVKGRFTISRDNAKNTVYLQMNSLKPEDTAVYYCAAERIWWAHAYPTYVANDYWGQGTQVTVSS	high polyreactivity
QVQLVESGGGLVQAGGSLRLSCAASGRTFWFYGMGWYRQAPGKERELVADITSGGGTYYADSVKGRFTISRDNAKNTVYLQMNSLKPEDTAVYYCNAYKTHVVPATYDSEEYWGQGTQVTVSS	low polyreactivity
QVQLVESGGGLVQAGGSLRLSCAASGRTFWGNAMGWYRQAPGKERELVASISSRGSSTYYADSVKGRFTISRDNAKNTVYLQMNSLKPEDTAVYYCAARTHYFPWPWYVWDYDSWGQGTQVTVSS	low polyreactivity
QVQLVESGGGLVQAGGSLRLSCAASGRTFWLYAMGWYRQAPGKARELVASITRDGTSTYYADSVKGRFTISRDNPKNTVYLQMNSLKPEDTAVYYCAAVYHSKSRTIYWGQGTQVTVSS	high polyreactivity
QVQLVESGGGLVQAGGSLRLSCAASGRTFWLYAMGWYRQAPGKEREFVASISSSGDSTYYADSVKGRFTISRDNAKNTVYLQMNSLKPEDTAVYYCAARPSRRYLRNGLDYWGQGTQVTVSS	high polyreactivity
QVQLVESGGGLVQAGGSLRLSCAASGRTFWNYAMGWYIQAPGKEREFVAVIRFSDGSTYYADSVKGRFTISRDNAKNTVYLQMNSLKPEDTAVYYCAAKGPRRWGSGFDYWGQGTQLTVSS	low polyreactivity
QVQLVESGGGLVQAGGSLRLSCAASGRTFWRNTMGWYRQAPGKQREFVAASTFSGVRTYYADSVKGRFTISRDNAKNTVYLQMNSLKPEDTAVYYCAKSRQYIGGFDYWGQGTQVTVSS	high polyreactivity
QVQLVESGGGLVQAGGSLRLSCAASGRTFWRYAMGWYRQAPGKERELVAAISSGGRTNYADSVKGRFTISRDNAKNTVYLQMNSLKPEDTAVYYCAVKTVRSSSRNYWGQGTQVTVSS	high polyreactivity
QVQLVESGGGLVQAGGSLRLSCAASGRTFWSNAMGWYRQAPGKEREFVAVISRSGSTTYYADSVKGRYTISRDNAKKTVYLQMISLKPEDTAFYNCAADRVRSYFSRYYSTPLDYYWGQGTQVTVSS	high polyreactivity
QVQLVESGGGLVQAGGSLRLSCAASGRTFWSNAMGWYRQAPGKERELVAAISGGARTNYADSVKGRFTISRDNAKNTVYLQMNSLKPEDTAVYYCAATPRYWQSRYDYWGQGTQVTVSS	high polyreactivity
QVQLVESGGGLVQAGGSLRLSCAASGRTFWSYAMGWYRQAPGKEREFVAAISYSGSSTYADSVKGRFTISRDNAKNTVYLQMNSLKPEDTAVYYLLRGQGTQVTVSS	low polyreactivity
QVQLVESGGGLVQAGGSLRLSCAASGRTFWVNAMGSYRQAPGKERELVATIRGSGVSTYYADSVKGRFTISRDNAKNTVYLQMNSLKPEDTAVYYCAAGFAGGYGVTFDYCGQGTQVTVSS	low polyreactivity
QVQLVESGGGLVQAGGSLRLSCAASGRTFWVNTMGWYRQAPGKERELVAGITRSGTRTYYADSVKGRFTISRDNAKNTVYLQMNSLKPEDTAVYYCATGPWRYRYDYWGQGTQVTVSS	low polyreactivity
QVQLVESGGGLVQAGGSLRLSCAASGRTFWVYAMGWNRQATGKERELVATISKSAGITSYADSVKGRFTFSRDNAKNTVYLQMNSLKPEDTAVYYCAADKSYRRVYYWGQGTQVTVSS	low polyreactivity

Sequence	polyreactivity (PSR sort gate)
QVQLVESGGGLVQAGGSLRLSCAASGRTFWVYAMGWYRQAPGKEREFVAAISGSVGSTYYADSVKGRFTISRDNAMKTVYLQMNSLKPEDTAVYYCAARQRRSEYGYWGQGTQVTVSS	high polyreactivity
QVQLVESGGGLVQAGGSLRLSCAASGRTFWVYAMGWYRQAPGKERELVASIRRGGSTYYADSVKGRFTISRDNAKNTVYLQMNSLKPEDTAVYYCAAERPYKTFGYGYWGQGTQVTVSS	high polyreactivity
QVQLVESGGGLVQAGGSLRLSCAASGRTFWYNAMGWYRQAPGKERELVATISPGGRTYYADSVKGRFTISRDNAKNTVYLQMNSVKPEDTAVYYCDASSSFSRYGVVPYYYWGQGTQVTVSS	high polyreactivity
QVQLVESGGGLVQAGGSLRLSCAASGRTFWYYAMGWSRQAPGKERELVAGITFTGGRTYYADSVKGRFTISRDNAKNTVYLQMNSLKPEDTAVYYCAAAGLDVGRKDRDGYWGQGTQVTVSS	low polyreactivity
QVQLVESGGGLVQAGGSLRLSCAASGRTFWYYAMGWYRQAPGKERELVAAISYSGDGTYYADSVKGRVTISRDNAKNTVYLPMHSLKPEDTAVYYCAAEWYEPTLPTAWSEYEYWGQGTQVTVSS	high polyreactivity
QVQLVESGGGLVQAGGSLRLSCAASGRTFWYYAMGWYRQAPGKERELVARISTGGSTNYADSVKGRFTISRDNAKNTVYLQMNSLKPEDTAVYYCAARPVWRRPSKFDYWGQGTQVTVSS	high polyreactivity
QVQLVESGGGLVQAGGSLRLSCAASGRTFWYYGMGWYRQAPGKERELVAAISRSGGRTYYADSVKGRFTISRDNAKNTVYLQMNSLKPEDTAVYYCVASYRRTFDYWGHGTQVTVSS	high polyreactivity
QVQLVESGGGLVQAGGSLRLSCAASGRTFWYYTMGWYRQAPGKEREFVAAIRGSGTSTYYADSGKARFTISRDNAKNNVYLQMNSLKPEDTAVYYCAAESPVYHLVTYDYWGQGTQVTVSW	high polyreactivity
QVQLVESGGGLVQAGGSLRLSCAASGRTFWYYTMGWYRQAPGKERELVAAITRRGGSTYYADSVKGRFTLSRDKAKNTVYLQMNSLKPEDTAVYYCARGGSRLTQGWLVTPYDYDYWGQGTQVTVSS	high polyreactivity
QVQLVESGGGLVQAGGSLRLSCAASGRTFWYYTMGWYRQAPGKERELVAAITSGGSTYYADSVKGRFTISRDNAKNTVYLQMNSLKPEDTAVYYCAAYLYWDFTYYYALVDYWGQGTQVTVSS	high polyreactivity
QVQLVESGGGLVQAGGSLRLSCAASGRTFWYYTMGWYRQAPGKERELVASITYRGGSTYYADSVKGRFTISRDNAKNTDYLQMNSLKPEDTAVYYCNARYKRYSYDYWGQGTQVTVSS	high polyreactivity
QVQLVESGGGLVQAGGSLRLSCAASGRTFYANTMGWYRPAPGKERELVASITSRGTSTYYADSVKGRFTISRDNAKNTVYLEMNSLKPEDTAVYYCAKAFIAPQYAWGGDYWGQGTQVTVSS	high polyreactivity
QVQLVESGGGLVQAGGSLRLSCAASGRTFYAYAMGLYRQAPGKERELVASIRWSSGSTNYADSVKRRFTISRDYAKITVYLQMNILKAEDTAVYYCAARYYYYGGHRLYWGQGTQLTVSS	high polyreactivity
QVQLVESGGGLVQAGGSLRLSCAASGRTFYAYAMGWYRQAPGKERELVAAITSGASTYYADSVKGRFTISRDNAKNTVYLQMNRLKPEDTAVYYCAKRVRYYKPGYDYWGQGTQVTVSS	low polyreactivity
QVQLVESGGGLVQAGGSLRLSCAASGRTFYDYAMGWYRQAPGKERELVASITGGASTNYADSVKGRFTISRDNAKNTVYLQMNSLKPEDTAVYYCAGRLYRGNVWDILLGGDYWGQGTQVTVSS	low polyreactivity
QVQLVESGGGLVQAGGSLRLSCAASGRTFYFNAMGWYRQAPGKERELVAGISGDGSTNYADSVKGRFTISRDNAKNTVYLQMNSLKPEDTAVYYCAARIRPGYRTWYYSWGQGTQVTVSS	low polyreactivity
QVQLVESGGGLVQAGGSLRLSCAASGRTFYFNGMGWSRQAPGKETELVAVITKSGGDTYYADSVKGRFTISRDNAKNTVYLQMNSLKPEDTAVYYCAAVYGYYTYWIPGFTWAVDYWGQGTQVTVSS	low polyreactivity
QVQLVESGGGLVQAGGSLRLSCAASGRTFYFNGMGWYRQAPGKERELVAAIRWRDSNTYYADSVKGRFTISRDNAKNTVYLQMNSLKPEDTAVYYCNVGIYSYGINGRYDYWGQGTQVTVSS	high polyreactivity
QVQLVESGGGLVQAGGSLRLSCAASGRTFYFNGMGWYRQAPGQERELVARISRRGGSTYYADSVKGRFTISRDNAKNTVYLQMNSLKPEDTAVYYCNTANYLLYDWGQGTQVNVSS	high polyreactivity
QVQLVESGGGLVQAGGSLRLSCAASGRTFYFYAMGWSRQSPGKERELVADIRGISGSTYYADSVKGRFTISRDNAKNTVYLQMNSLKPEDTAVYYCAADPYLGRAWRGRGYYWGQGTQVTVSS	high polyreactivity
QVQLVESGGGLVQAGGSLRLSCAASGRTFYFYAMGWYRQAPGKERELVAAITVRGGSTYYADSVKGRFTISRYNAKNTVYLQMNSLKPEDTAVYYCAADPYPYYGAYDYWGQGTQVTVSS	high polyreactivity

From the nanobody polyreactivity screen of Harvey et al. (2022)
